One test concerns the target TSP7 S77R (scFv) (mouse). In words: SPR; scFv (100 nM) captured on anti-His6-tag antibody on a CM5 chip; analyte 1.25-20 nM strand-swap dimer or 6.25-100 nM monomer construct; global fitting. In general terms: SPR reads the build-up and loss of mass on a sensor chip optically.
In test [1] the target is human P-cadherin expressed on CHO cells (human) (UniProt P22223).

Chain of TSP7 S77R (scFv) (mouse) (heavy, as listed by the source): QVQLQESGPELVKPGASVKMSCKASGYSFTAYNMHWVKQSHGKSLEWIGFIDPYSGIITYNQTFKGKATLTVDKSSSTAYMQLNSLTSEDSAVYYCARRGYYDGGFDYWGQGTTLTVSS
Chain of human P-cadherin expressed on CHO cells (P22223 108-829): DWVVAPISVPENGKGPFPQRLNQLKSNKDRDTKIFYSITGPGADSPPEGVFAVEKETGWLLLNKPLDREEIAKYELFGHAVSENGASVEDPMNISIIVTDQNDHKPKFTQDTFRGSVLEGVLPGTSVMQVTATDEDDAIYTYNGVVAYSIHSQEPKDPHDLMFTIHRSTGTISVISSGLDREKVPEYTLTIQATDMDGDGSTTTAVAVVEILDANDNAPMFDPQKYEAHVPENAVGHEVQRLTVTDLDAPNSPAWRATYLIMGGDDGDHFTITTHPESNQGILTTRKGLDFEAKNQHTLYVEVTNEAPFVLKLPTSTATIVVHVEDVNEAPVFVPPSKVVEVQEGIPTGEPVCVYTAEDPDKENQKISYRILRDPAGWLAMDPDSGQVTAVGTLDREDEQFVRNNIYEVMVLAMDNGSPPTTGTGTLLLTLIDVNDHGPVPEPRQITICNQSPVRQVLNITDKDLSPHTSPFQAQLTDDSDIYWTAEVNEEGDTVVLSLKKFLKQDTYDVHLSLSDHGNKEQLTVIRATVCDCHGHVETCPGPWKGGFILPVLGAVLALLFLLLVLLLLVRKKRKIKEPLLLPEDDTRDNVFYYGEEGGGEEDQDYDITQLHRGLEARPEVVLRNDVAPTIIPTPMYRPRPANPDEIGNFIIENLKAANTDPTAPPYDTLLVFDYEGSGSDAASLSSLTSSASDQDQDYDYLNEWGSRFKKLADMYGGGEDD

In the test with TSP7 S77R (scFv) (mouse), “human P-cadherin EC12 K14E (domain or fragment)” registered a fold change of affinity against TSP7 WT of 2 fold lower.

With “human P-cadherin expressed on CHO cells (from UniProt P22223 108-829) (natural protein)”, in test [1], the loss of dense fluorescent puncta of P-cadherin WT-mGFP at cell-cell boundaries of CHO cells after 100 nM TSP7 (0-120 min) came out at 90%.
